Reference: PMC12557367, ““Precision on Two Wheels”–Structural Refinement of ^64Cu- and ^68Ga-Labeled Bicyclic Peptides Targeting Nectin‑4 for Improved Tumor Imaging: From Preclinical Development to First-in-Human Application” (Journal of Medicinal Chemistry, 2025)
Numbered stars: 1 amine (or outer) side, 2 acyl side, 3 side chain; on linkers, the order of the positions; unused ones are H or OH. Bridge positions count the residues as written; N and C are the ends. Square brackets hold non-standard residues; d marks the D form. * marks the point of attachment. (R)‑NODAGA = O=C(O)CN1CCN(CC(=O)O)CCN([C@H](CCC(=O)*)C(=O)O)CC1; 6FAM = O=C1OC2(c3ccc(O)cc3Oc3cc(O)ccc32)c2cc(C(=O)*)ccc21; DOTA = O=C(O)CN1CCN(CC(=O)O)CCN(CC(=O)*)CCN(CC(=O)O)CC1; TATA = O=C(CC[*:1])N1CN(C(=O)CC[*:2])CN(C(=O)CC[*:3])C1; Ser(et) = O-ethylserine, CCOC[C@H](N[*:1])C(=O)[*:2]; Mox = methoxinine, COCC[C@H](N[*:1])C(=O)[*:2]; 1Nal = N[C@@H](Cc1cccc2ccccc12)C(=O)O; 2Nal = N[C@@H](Cc1ccc2ccccc2c1)C(=O)O; Hyp = O=C(O)[C@@H]1C[C@@H](O)CN1; hArg = N=C(N)NCCCC[C@H](N)C(=O)O; Met(O) = CS(=O)CC[C@H](N)C(=O)O; SeMet = C[Se]CC[C@H](N)C(=O)O; Nle = CCCC[C@H](N)C(=O)O

Columns and labels:
[1] = molecular target: T1, recombinant human nectin-4 (human, UniProt Q96NY8 32-349); assay: SPR; Biacore T200, human nectin-4 immobilised on CM5 chip by amine coupling, peptides as analytes, single-cycle kinetics, 25 °C, HBS-P+ pH 7.4, no DMSO, 1:1 binding model; settings: both partners purified
T1 construct: nectin-4, human, recombinant; also called complete extracellular domain of nectin-4; source: bought: R&D Systems (Catalog number 2659-N4)
T1 sequence (looked up): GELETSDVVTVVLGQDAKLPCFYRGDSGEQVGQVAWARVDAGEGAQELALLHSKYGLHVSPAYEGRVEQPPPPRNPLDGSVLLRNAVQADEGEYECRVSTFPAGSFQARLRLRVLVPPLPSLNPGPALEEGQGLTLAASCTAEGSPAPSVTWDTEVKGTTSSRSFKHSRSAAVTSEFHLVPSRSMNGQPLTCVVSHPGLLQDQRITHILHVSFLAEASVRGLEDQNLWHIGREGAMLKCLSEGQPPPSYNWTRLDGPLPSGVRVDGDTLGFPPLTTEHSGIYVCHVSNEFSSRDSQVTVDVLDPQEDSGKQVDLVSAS

[2] = molecular target: T1, recombinant human nectin-4; assay: fluorescence polarisation; fluorescence anisotropy, competition: 1 nM probe 1a, 20 nM nectin-4, 10 concentrations of nonlabeled peptide, 37 °C, HEPES buffer pH 7.4, 1% DMSO; IC50 transformed into Kd (Nikolovska-Coleska equation, Kd of 1a 0.94 nM); settings: both partners purified
[3] = molecular target: T2, nectin-4 on intact HT-1376 cells (human (endogenous in HT-1376), UniProt Q96NY8 32-510); assay: radioligand binding; saturation binding on intact HT-1376 cells, 10 radioligand concentrations (0.156-80 or 0.321-160 nM), 37 °C, 1 h, PBS wash; nonspecific with 1 µM 1d; apparent (covers binding and putative internalisation); settings: one partner purified
T2 construct: also called cellular nectin-4
T2 sequence (looked up): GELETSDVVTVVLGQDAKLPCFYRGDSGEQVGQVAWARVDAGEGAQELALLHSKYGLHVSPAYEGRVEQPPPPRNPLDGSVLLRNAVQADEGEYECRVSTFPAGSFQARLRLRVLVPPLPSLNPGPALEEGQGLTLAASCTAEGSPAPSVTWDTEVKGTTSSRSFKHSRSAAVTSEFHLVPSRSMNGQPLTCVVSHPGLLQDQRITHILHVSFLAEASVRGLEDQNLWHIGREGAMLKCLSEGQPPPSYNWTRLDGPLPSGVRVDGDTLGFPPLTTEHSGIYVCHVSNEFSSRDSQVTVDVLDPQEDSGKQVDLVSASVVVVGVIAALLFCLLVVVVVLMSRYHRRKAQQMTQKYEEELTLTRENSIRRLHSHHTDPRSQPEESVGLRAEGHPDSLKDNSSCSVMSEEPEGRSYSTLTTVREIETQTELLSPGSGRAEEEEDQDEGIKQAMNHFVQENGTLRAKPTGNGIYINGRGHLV

[4] = molecular target: T2, nectin-4 on intact HT-1376 cells; assay: radioligand binding; intact HT-1376 cells, 10 nM radioligand, 37 °C, 1 h, PBS wash; nonspecific binding with 1 µM 1d (3a for [68Ga]Ga-8d); specific binding in fmol/mg protein; settings: one partner purified
[5] = molecular target: T1, recombinant human nectin-4; assay: fluorescence polarisation; fluorescence anisotropy, direct binding: 1 nM fluorescent probe, 11 to 13 concentrations of nectin-4 (e.g. 0.06-250 nM), 37 °C, 1200 s, HEPES buffer 20 mM pH 7.4, 0.01% Tween20, NaCl, 1% DMSO; Morrison equation; settings: both partners purified

Binder: {(R)‑NODAGA}-CP[2Nal][dD]CMRDWSTP[Hyp]WC-NH2 (linker 1-5-15 via TATA) [8a]
- Kd [1]: 63 nM
- koff [1]: 0.0433 s⁻¹
- kon [1]: 680000 M⁻¹ s⁻¹
- Kd [2]: 21 nM

Binder: {DOTA}-CP[2Nal][dD]CMRDWSTP[Hyp]WC-NH2 (linker 1-5-15 via TATA) [8c]
- Kd [1]: 127 nM
- koff [1]: 0.00239 s⁻¹
- kon [1]: 20000 M⁻¹ s⁻¹
- Kd [2]: 149 nM

Binder: {(R)‑NODAGA}-CP[1Nal][dD]C[Mox][hArg]DWSTP[Hyp]WC-NH2 (linker 1-5-15 via TATA; also: NODAGA complexed with 68Ga) [[68Ga]Ga-4]
- Kd [3]: 13.1 nM

Binder: {DOTA}-CP[2Nal][dD]CMRDWSTP[Hyp]WC-NH2 (linker 1-5-15 via TATA; also: DOTA complexed with 68Ga) [[68Ga]Ga-8c]
- specific cell binding at 10 nM radioligand [4]: 38.4 fmol/mg
- Kd [3]: 103 nM

Binder: {(R)‑NODAGA}-CP[1Nal][dD]CM[hArg]DWSTP[Hyp]WC-NH2 (linker 1-5-15 via TATA; also: NODAGA complexed with natGa) [natGa-1e]
- Kd [1]: 2.39 nM
- koff [1]: 0.0026 s⁻¹
- kon [1]: 1.1e+06 M⁻¹ s⁻¹
- Kd [2]: 4.47 nM

Binder: Ac-CP[1Nal][dD]C[Nle][hArg]DWSTP[Hyp]WC-NH2 (linker 1-5-15 via TATA) [3b]
- Kd [2]: 0.58 nM

Binder: {(R)‑NODAGA}-CP[1Nal][dD]C[Nle][hArg]DWSTP[Hyp]WC-NH2 (linker 1-5-15 via TATA; also: NODAGA complexed with natCu) [natCu-3a]
- Kd [2]: 1.22 nM

Binder: Ac-CP[1Nal][dD]CM[hArg]DWSTP[Hyp]WC-NH2 (linker 1-5-15 via TATA) [1d (BCY8126)]
- Kd [2]: 0.73 nM

Binder: {(R)‑NODAGA}-CP[2Nal][dD]CM[hArg]DWSTP[Hyp]WC-NH2 (linker 1-5-15 via TATA) [9]
- Kd [1]: 4.58 nM
- koff [1]: 0.0765 s⁻¹
- kon [1]: 1.69e+07 M⁻¹ s⁻¹
- Kd [2]: 11.5 nM

Binder: {(R)‑NODAGA}-CP[1Nal][dD]CM[hArg]DWSTP[Hyp]WC-NH2 (linker 1-5-15 via TATA; also: NODAGA complexed with natCu) [natCu-1e]
- Kd [2]: 0.23 nM

Binder: {(R)‑NODAGA}-CP[1Nal][dD]C[Nle][hArg]DWSTP[Hyp]WC-NH2 (linker 1-5-15 via TATA) [3a]
- Kd [1]: 1.31 nM
- Kd [2]: 1.04 nM

Binder: 6FAM-CP[1Nal][dD]CM[hArg]DWSTP[Hyp]WC-NH2 (linker 1-5-15 via TATA) [1b]
- Kd [5]: 0.17 ± 0.01 nM

Binder: {DOTA}-CP[2Nal][dD]CMRDWSTP[Hyp]WC-OH (linker 1-5-15 via TATA) [8d (N188)]
- Kd [1]: 236 nM
- koff [1]: 0.00881 s⁻¹
- kon [1]: 40000 M⁻¹ s⁻¹
- Kd [2]: 191 nM

Binder: {(R)‑NODAGA}-CP[1Nal][dD]CM[hArg]DWSTP[Hyp]WC-NH2 (linker 1-5-15 via TATA; also: NODAGA complexed with 64Cu) [[64Cu]Cu-1e]
- specific cell binding at 10 nM radioligand [4]: 159 fmol/mg
- Kd [3]: 7.15 nM

Binder: {(R)‑NODAGA}-CP[1Nal][dD]C[Met(O)][hArg]DWSTP[Hyp]WC-NH2 (linker 1-5-15 via TATA; also: Met(O): mixture of diastereomers) [2]
- Kd [2]: 25 nM

Binder: {DOTA}-CP[1Nal][dD]CM[hArg]DWSTP[Hyp]WC-NH2 (linker 1-5-15 via TATA) [1f]
- Kd [1]: 1.31 nM
- koff [1]: 0.0115 s⁻¹
- kon [1]: 8.76e+06 M⁻¹ s⁻¹
- Kd [2]: 7.22 nM

Binder: {(R)‑NODAGA}-CP[2Nal][dD]CMRDWSTP[Hyp]WC-NH2 (linker 1-5-15 via TATA; also: NODAGA complexed with 64Cu) [[64Cu]Cu-8a]
- specific cell binding at 10 nM radioligand [4]: 15.6 fmol/mg
- Kd [3]: 51.7 nM

B1: 6 (peptide)
chain: {(R)‑NODAGA}-CP[1Nal][dD]C[Ser(et)][hArg]DWSTP[Hyp]WC-NH2
modifications: linker 1-5-15 via TATA
SMILES: CCOC[C@@H]1NC(=O)[C@@H]2CSCCC(=O)N3CN(CN(C3)C(=O)CCSC[C@H](NC(=O)CC[C@H](C(=O)O)N3CCN(CC(=O)O)CCN(CC(=O)O)CC3)C(=O)N3CCC[C@H]3C(=O)N[C@@H](Cc3cccc4ccccc34)C(=O)N[C@H](CC(=O)O)C(=O)N2)C(=O)CCSC[C@@H](C(N)=O)NC(=O)[C@H](Cc2c[nH]c3ccccc23)NC(=O)[C@@H]2C[C@@H](O)CN2C(=O)[C@@H]2CCCN2C(=O)[C@H]([C@@H](C)O)NC(=O)[C@H](CO)NC(=O)[C@H](Cc2c[nH]c3ccccc23)NC(=O)[C@H](CC(=O)O)NC(=O)[C@H](CCCCNC(=N)N)NC1=O
- Kd [1]: 6.29 nM
- koff [1]: 0.0247 s⁻¹
- kon [1]: 3.86e+06 M⁻¹ s⁻¹
- Kd [2]: 16.4 nM

Binder: {(R)‑NODAGA}-CP[1Nal][dD]C[SeMet][hArg]DWSTP[Hyp]WC-NH2 (linker 1-5-15 via TATA) [5]
- Kd [2]: 1.37 nM

Binder: {(R)‑NODAGA}-CP[1Nal][dD]CM[hArg]DWSTP[Hyp]WC-NH2 (linker 1-5-15 via TATA; also: NODAGA complexed with 68Ga) [[68Ga]Ga-1e]
- specific cell binding at 10 nM radioligand [4]: 474 fmol/mg
- Kd [3]: 8.7 nM

Binder: {(R)‑NODAGA}-CP[1Nal][dD]CM[hArg]DWSTP[Hyp]WC-NH2 (linker 1-5-15 via TATA) [1e]
- Kd [1]: 3.6 nM
- koff [1]: 0.00434 s⁻¹
- kon [1]: 1.21e+06 M⁻¹ s⁻¹
- Kd [2]: 0.77 nM

Binder: {(R)‑NODAGA}-CP[1Nal][dD]CMRDWSTP[Hyp]WC-NH2 (linker 1-5-15 via TATA) [10]
- Kd [1]: 2.51 nM
- koff [1]: 0.00278 s⁻¹
- kon [1]: 1.11e+06 M⁻¹ s⁻¹
- Kd [2]: 0.61 nM

Binder: 6FAM-CP[2Nal][dD]CMRDWSTP[Hyp]WC-NH2 (linker 1-5-15 via TATA) [8b]
- Kd [5]: 1.38 ± 0.06 nM

Binder: {DOTA}-CP[2Nal][dD]CMRDWSTP[Hyp]WC-OH (linker 1-5-15 via TATA; also: DOTA complexed with 68Ga) [[68Ga]Ga-8d ([68Ga]Ga-N188)]
- Kd [3]: 222 nM

Binder: H-CP[1Nal][dD]CM[hArg]DWSTP[Hyp]WC-NH2 (linker 1-5-15 via TATA) [1c]
- Kd [2]: 1.51 nM
